Publication PMC10580935

Columns and labels:
Experiment in all cases: EMSA
Details in all cases: 20 mM Tris-HCl pH 8.0, 1 mM DTT, 50 mM KCl, 5 mM MgCl2, 0.05 mg/mL BSA, 10% glycerol
[1] = biological target: T1, IdeR (Mycobacterium bovis BCG) (UniProt P9WMH1)
T1 sequence: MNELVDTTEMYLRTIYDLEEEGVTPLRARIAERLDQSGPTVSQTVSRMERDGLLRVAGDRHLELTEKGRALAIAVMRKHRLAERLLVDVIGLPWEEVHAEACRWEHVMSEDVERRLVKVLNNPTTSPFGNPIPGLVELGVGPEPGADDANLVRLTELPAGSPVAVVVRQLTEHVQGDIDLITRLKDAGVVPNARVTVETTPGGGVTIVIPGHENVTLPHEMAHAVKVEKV

[2] = biological target: T2, IdeR;Zur (Mycobacterium bovis BCG;Mycobacterium bovis BCG) (UniProt P9WMH1+P9WN85)
T2 sequence 1: T1 sequence
T2 sequence 2: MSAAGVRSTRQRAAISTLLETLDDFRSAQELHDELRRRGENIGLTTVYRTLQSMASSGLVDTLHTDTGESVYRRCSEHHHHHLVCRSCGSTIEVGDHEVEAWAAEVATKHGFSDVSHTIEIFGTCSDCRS

[3] = biological target: T3, Zur (Mycobacterium bovis BCG) (UniProt P9WN85)
T3 sequence: T2 sequence 2

ACGTCAGCGTCTACCTTGCCATTTACCCGAGACGCGACGGGGGAAGCGGCCACCATGCCAATGTCATCACGCTCCACGCCTCCGCTGTCTCCTTCACCTACGCCCGCCATCGGCCGATCCGCCTGAACTTTGCCCCGAAGTTAGCATTGCATAAGCTAACTGTCGAGGCGACCGCGACCAATCGACTCGGCCCTGCGGCCAAGCTTTTAGGCACGGCTGGCAAGATCATGACCGATACTCCATTTCGTTGGTAGCCCGATATGCAGAGTGTAG (double strand) [esx-3p2]
binding [1]: binds
binding [2]: binds
binding [3]: no binding
